According to article PMC12956874:

Columns and labels:
[1] = biological target: PEX38_(65–134) (T. brucei); test: ITC; titration of PEX38 with PEX19; technical triplicates
[2] = biological target: TbPEX38 (65-134) (T. brucei); test: ITC; 40 µM TbPEX38 titrated with 440 µM TbPEX19; triplicates; 25°C; 20 mM Tris pH 7.5, 50 mM NaCl; one-site binding model; MicroCal PEAQ-ITC
[3] = biological target: PEX19-His, full-length (T. brucei); test: AlphaScreen or HTRF; AlphaScreen displacement assay: equimolar PEX19-His and GST-PEX3Δ1-44 (30 nM), increasing amounts of untagged PEX38
[4] = biological target: PEX19-His 1 to 50 (T. brucei); test: AlphaScreen or HTRF
[5] = biological target: PEX19-His, full-length (T. brucei); test: AlphaScreen or HTRF

Substance: PEX19_(1–50) with a C-terminal SGGY extension (domain or fragment)
- Kd [1]: 3000 nM

Substance: TbPEX19 (1-50-SGGY) (domain or fragment)
- Kd [2]: 2890 nM

Substance: PEX38_(65–134) (domain or fragment)
- IC50 [3]: 446 nM

Substance: GST-PEX38, full-length (natural protein)
- other [4]: 10 fold

Substance: GST-PEX3Δ1-44 (domain or fragment)
- other [5]: 30 fold

Substance: untagged PEX38, full-length (natural protein)
- IC50 [3]: 950 nM
